Experimental data from article PMC7412812, “The RNA-binding protein SERBP1 functions as a novel oncogenic factor in glioblastoma by bridging cancer metabolism and epigenetic regulation”.

Molecular target: T1, SERBP1 (human, UniProt Q8NC51 1-408)
T1 sequence: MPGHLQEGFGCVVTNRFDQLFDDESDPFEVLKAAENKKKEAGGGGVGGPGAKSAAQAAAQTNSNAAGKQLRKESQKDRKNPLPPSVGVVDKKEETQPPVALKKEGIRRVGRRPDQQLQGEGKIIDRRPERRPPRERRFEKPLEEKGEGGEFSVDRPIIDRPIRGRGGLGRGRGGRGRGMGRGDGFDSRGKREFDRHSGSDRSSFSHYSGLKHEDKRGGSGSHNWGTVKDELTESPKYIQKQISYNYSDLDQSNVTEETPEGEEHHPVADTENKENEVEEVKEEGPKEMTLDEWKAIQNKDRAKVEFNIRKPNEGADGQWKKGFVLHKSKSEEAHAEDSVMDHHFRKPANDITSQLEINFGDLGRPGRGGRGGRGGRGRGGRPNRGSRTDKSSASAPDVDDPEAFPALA
Test: fluorescence polarization; 5 nM RNA, 0-1000 nM protein; FP: 10 mM HEPES pH 7.5, 50 mM KCl, room temperature
Settings: protein: recombinant; tags: N-terminal His6, proteolytically removed (Methods; Results call it an N-terminus His6 fusion); label: 5'-fluorescein; single strand

B1: SERBP1 RNA 7-mer (ssRNA)
RNA: GCGCGGG
Kd: ~47 nM
